# According to patent publication US20240262929A1 (IBIO, published 2024):
# T1: engineered epitope 1, 58-mer of MUC16 non-shed domain, glycosylated (N-glycosylated (expressed in mammalian cells, used in glycosylated form); biotinylated for the Octet assay)
# T1 peptide: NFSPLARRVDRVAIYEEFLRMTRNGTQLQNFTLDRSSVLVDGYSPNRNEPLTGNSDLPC
# T2: engineered epitope 2, 29-mer of MUC16 non-shed domain, aglycosylated (aglycosylated (produced synthetically); biotinylated for the Octet assay)
# T2 peptide: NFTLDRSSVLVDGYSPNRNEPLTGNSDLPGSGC
# T3: engineered epitope 1, 58-mer of MUC16 non-shed domain, glycosylated (N-glycosylated (expressed in mammalian cells, used in glycosylated form); biotinylated for the Octet assay)
# T3 peptide: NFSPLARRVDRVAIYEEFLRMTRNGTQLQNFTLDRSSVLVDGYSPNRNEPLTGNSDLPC
# T4: engineered epitope 2, 29-mer of MUC16 non-shed domain, aglycosylated (aglycosylated (produced synthetically); biotinylated for the Octet assay)
# T4 peptide: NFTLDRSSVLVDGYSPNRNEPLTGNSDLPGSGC
# T5: 230-mer MUC16 shed domain (UniProt Q8WXI7 14164-14393, biotinylated for the Octet assay)
# T5 construct: domain: 230-mer MUC16 shed domain
# T5 sequence: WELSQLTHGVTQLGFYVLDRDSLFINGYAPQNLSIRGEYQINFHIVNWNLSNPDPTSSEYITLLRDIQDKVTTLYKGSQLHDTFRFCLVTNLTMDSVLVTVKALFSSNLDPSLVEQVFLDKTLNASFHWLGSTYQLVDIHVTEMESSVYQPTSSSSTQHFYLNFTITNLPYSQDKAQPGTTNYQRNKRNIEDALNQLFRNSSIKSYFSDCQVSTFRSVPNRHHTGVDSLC
# Experiments:
# [1] = biological target: T1, engineered epitope 1, 58-mer of MUC16 …; assay: ELISA dose-response (FIG. 3)
# [2] = biological target: T2, engineered epitope 2, 29-mer of MUC16 …; assay: ELISA dose-response (FIG. 3)
# [3] = biological target: T3, engineered epitope 1, 58-mer of MUC16 …; assay: ELISA
# [4] = biological target: T4, engineered epitope 2, 29-mer of MUC16 …; assay: ELISA
# [5] = biological target: T6, MUC16 on OVCAR-3 (MUC16high) and SKOV-3 (MUC16low) ovarian cancer cells (UniProt Q8WXI7 1-14507, limits assumed); assay: flow cytometry, hybridoma supernatant on OVCAR-3 or SKOV-3 cells (FIG. 5B)
# T6 construct: whole, on cells; also called MUC16high cells; MUC16low cells
# Experimental: Methods: Hybridoma supernatants were diluted 1:2 into FACS buffer containing OVCAR-3 or SKOV-3 cells and incubated for 30 minutes, then washed once with FACS buffer. 2 ug/mL APC labeled goat anti-mouse Fc secondary antibody diluted in FACS buffer was added to the cells and incubated for 20 minutes, then washed once with FACS buffer. Flow cytometry was performed with 20,000 cells per sample.
# [6] = biological target: T5, 230-mer MUC16 shed domain; assay: BLI (Octet), biotinylated 230-mer shed domain on streptavidin biosensor, increasing concentrations of purified antibody
# Experimental: Methods: Biotinylated 29-mer engineered epitope, glycosylated 58-mer engineered epitope, 230-mer MUC16 shed domain and 288-mer MUC16 extra-cellular domain were immobilized on a Pall Octet 384-Red streptavidin biosensor. Immobilized biosensor tips were dipped into increasing concentration of purified antibody with a 4 minute association followed by a 3 minute dissociation.
# [7] = biological target: T6, MUC16 on OVCAR-3 (MUC16high) and SKOV-3 …; assay: cell binding on OVCAR3 cells (FIG. 9A)
# [8] = biological target: T1, engineered epitope 1, 58-mer of MUC16 …; assay: hybridoma ELISA screen / dose-response (FIG. 8)
# [9] = biological target: T2, engineered epitope 2, 29-mer of MUC16 …; assay: binding graphs of FIG. 10 (presumably BLI as for FIG. 5A)
# [10] = biological target: T5, 230-mer MUC16 shed domain; assay: as above
# [11] = biological target: T3, engineered epitope 1, 58-mer of MUC16 …; assay: ELISA; table columns appear swapped relative to plotted curves
# [12] = biological target: T4, engineered epitope 2, 29-mer of MUC16 …; assay: as above
# [13] = biological target: T1, engineered epitope 1, 58-mer of MUC16 …; assay: ELISA dose-response (FIG. 6)
# [14] = biological target: T2, engineered epitope 2, 29-mer of MUC16 …; assay: ELISA dose-response (FIG. 6)
# [15] = biological target: T3, engineered epitope 1, 58-mer of MUC16 …; assay: ELISA
# [16] = biological target: T4, engineered epitope 2, 29-mer of MUC16 …; assay: ELISA
# [17] = biological target: T6, MUC16 on OVCAR-3 (MUC16high) and SKOV-3 …; assay: flow cytometry on MUC16high and MUC16low cells (FIG. 7B)
# [18] = biological target: T5, 230-mer MUC16 shed domain; assay: binding graphs of FIG. 7A (presumably BLI as for FIG. 5A)
binder,measurement,setting,value
"1D7 anti-MUC16 clone (antibody, V domains shown, Hybridoma antibody from immunized Balb/c mice; Used as purified antibody in BLI and as hybridoma supernatant in flow cytometry; also called clone 1D7) VH: EVMLVESGGGLVKPGGSLKLSCVASGFTFSSFAMSWVRQTPEKRLEWVAIISSGGGYIYYADSMTGRFTISRDNAKNTLYLQMSSLRSEDTAMYYCARLGGDYDEFYAKDYWGQGTSVTVSS VL: DIQMTQSSSSFSVSLGDRVTITCKASEDIYNRLAWYQQKPGNAPRLLISGATSLETGVPSRFSGSGSGKDYTLSITSLQTEDVATYYCQQYWSTWTFGGGTKLEIK",binding result,[1],binds
same,binding result,[2],binds
same,EC50,[3],0.51 nM
same,EC50,[4],0.56 nM
same,binding result,[5],binds
same,binding result,[6],no binding
"21G6 anti-MUC16 clone (antibody, V domains shown, Hybridoma antibody from immunized Balb/c mice; also called clone 21G6) VH: EVQLEESGPGLVKPSQSLSLTCTVTGYSITSDYAWNWIRQFPGNKLEWMGYISYSGSTIYNPSLKSRISITRDTSKNQFFLHLNSVTTEDTATYYCATLGLDYWGQGTTLTVSS VL: DFVMTQSPSSLAVSVGEKVTMSCKSSQSLLYSSNQKNYLAWYQQKPGQSPKLLIYWASTRGSGVPDRFTGSGSGTDFTLTISSVKAEDLAVYYCQQYHSYRTFGGGTKLEIK",binding result,[7],binds
same,binding result,[8],binds
same,binding result,[9],binds
same,binding result,[10],no binding
same,EC50,[11],0.68 nM
same,EC50,[12],3.4 nM
"8G4 anti-MUC16 clone (antibody, V domains shown, Hybridoma antibody from immunized Balb/c mice; also called clone 8G4) VH: QIQLVQSGPELKMPGETVKISCKASGYTFTNFGMNWVKQAPGKALKWMGWINTNTGKPTYFEEFKGRFAFSLETSASTAYLQINNLKNEDTATYFCARRWDRSAWFAYWGQGTLVTVSA VL: QAVVTQESALTTSPGETVTLTCRSSTGAVTTSNYANWVQEKPDHLFTGLIGGTNDRSPGVPARFSGSLIGDKAALTITGAQTEDEAIYFCALWYSNHWVFGGGTKLTVL",binding result,[13],binds
same,binding result,[14],binds
same,EC50,[15],0.19 nM
same,EC50,[16],0.23 nM
same,binding result,[17],binds
same,binding result,[18],no binding
